System: O=C(Cc1cccs1)N[C@@H]1C(=O)N2C(C(=O)O)=C(/C=C/c3ccc([N+](=O)[O-])cc3[N+](=O)[O-])CS[C@H]12
Test: purified protein
Assay type: biochemical, Acinetobacter baumannii

ADC-7 β-lactamase (Acinetobacter-derived cephalosporinase) (Acinetobacter baumannii)
Km: 21.2 µM
